From patent US20250145690A1 (US Dept. of Health and Human Services, published 2025)
Residue numbers refer to the chain shown, from its start.

T1: HCoV-229E spike protein (Sino Biological 40605-V08B) (HCoV-229E, UniProt P15423 16-1115)
T1 sequence: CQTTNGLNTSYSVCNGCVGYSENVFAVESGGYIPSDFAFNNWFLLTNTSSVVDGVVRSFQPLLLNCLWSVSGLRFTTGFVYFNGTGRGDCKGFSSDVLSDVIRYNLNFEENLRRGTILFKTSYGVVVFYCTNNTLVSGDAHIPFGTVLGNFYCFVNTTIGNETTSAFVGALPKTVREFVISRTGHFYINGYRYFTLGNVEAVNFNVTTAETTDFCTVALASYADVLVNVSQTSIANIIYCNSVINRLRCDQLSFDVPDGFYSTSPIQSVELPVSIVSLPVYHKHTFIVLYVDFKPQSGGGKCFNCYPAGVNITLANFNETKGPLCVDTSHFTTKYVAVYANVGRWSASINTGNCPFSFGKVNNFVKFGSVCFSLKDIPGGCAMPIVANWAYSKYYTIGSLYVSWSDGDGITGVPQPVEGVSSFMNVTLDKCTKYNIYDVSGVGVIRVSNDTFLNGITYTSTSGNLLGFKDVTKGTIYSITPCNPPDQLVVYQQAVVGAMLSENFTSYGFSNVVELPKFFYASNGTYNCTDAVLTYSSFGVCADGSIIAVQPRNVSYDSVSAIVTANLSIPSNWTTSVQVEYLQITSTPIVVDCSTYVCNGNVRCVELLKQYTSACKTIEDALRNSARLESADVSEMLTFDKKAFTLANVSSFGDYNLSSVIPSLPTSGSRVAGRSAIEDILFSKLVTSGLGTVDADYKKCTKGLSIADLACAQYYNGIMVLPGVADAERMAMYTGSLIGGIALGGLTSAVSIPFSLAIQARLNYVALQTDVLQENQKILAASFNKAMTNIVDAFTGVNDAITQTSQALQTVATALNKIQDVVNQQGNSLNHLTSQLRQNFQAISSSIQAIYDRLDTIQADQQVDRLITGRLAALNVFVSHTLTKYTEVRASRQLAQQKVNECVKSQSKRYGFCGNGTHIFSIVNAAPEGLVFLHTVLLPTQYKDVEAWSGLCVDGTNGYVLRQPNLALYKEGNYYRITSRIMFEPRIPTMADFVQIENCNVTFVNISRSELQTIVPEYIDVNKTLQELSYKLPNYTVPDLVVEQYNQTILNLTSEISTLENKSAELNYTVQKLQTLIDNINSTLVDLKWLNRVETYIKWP

T2: HCoV-NL63 spike protein (Sino Biological 40604-V08B) (HCoV-NL63, UniProt Q6Q1S2 19-1296)
T2 sequence: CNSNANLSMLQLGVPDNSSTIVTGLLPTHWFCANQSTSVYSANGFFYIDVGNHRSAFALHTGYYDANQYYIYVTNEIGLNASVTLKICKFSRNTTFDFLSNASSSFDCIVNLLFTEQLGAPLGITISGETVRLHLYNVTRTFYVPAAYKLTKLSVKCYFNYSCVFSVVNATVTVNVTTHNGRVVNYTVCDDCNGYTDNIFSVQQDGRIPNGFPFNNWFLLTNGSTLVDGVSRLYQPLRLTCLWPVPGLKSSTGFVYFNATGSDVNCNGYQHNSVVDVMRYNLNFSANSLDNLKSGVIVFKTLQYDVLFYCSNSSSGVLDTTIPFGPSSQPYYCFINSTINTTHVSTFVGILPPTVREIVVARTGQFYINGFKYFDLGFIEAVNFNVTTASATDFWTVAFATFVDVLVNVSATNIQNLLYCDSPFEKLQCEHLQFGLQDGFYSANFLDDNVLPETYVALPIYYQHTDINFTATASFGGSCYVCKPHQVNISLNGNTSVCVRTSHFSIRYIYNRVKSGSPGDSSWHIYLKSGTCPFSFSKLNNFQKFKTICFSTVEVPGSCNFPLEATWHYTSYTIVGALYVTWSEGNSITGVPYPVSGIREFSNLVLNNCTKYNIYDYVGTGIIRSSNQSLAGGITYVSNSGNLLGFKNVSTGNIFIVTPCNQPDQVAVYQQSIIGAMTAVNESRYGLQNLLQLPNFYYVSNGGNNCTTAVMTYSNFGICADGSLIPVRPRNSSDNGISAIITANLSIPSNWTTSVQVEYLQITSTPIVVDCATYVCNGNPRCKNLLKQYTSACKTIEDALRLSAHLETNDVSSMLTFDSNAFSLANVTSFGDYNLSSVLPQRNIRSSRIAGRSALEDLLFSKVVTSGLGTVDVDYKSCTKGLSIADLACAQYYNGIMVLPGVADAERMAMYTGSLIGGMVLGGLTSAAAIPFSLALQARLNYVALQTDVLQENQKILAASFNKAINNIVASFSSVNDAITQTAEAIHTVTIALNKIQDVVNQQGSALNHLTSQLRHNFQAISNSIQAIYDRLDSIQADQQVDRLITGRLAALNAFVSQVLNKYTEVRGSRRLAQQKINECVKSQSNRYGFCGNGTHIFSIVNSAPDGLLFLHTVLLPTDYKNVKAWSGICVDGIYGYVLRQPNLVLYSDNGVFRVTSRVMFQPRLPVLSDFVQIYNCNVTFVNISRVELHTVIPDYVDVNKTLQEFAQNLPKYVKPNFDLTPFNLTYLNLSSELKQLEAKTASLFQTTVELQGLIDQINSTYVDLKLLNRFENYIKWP

B1: COV44-56 (antibody, V domains shown)
VH: QVLLVQSGAEVKKPGASVMVSCKASGYILNNYYMHWVRQAPGHGLEWMGIINPSGDGTRYAQKFQGRVTMTRDSSTTSIHMELRRVTSEDTAVYYCARGGSQSAFDMWGQGTVVLVSS
VL: DIVMTQSPRSLPVTPGESASISCRSSQSLLQKNGYNYLDWYVQKPGQSPQLLIYLGSYRASGVPDRISGSGSGTDFTLKINRVEAEDVGVYYCLQAQQAPPLYTFGQGTKLQIE
B2: COV93-08 (antibody, V domains shown)
VH: QVQLRESGPGVVKPSGTLSLTCTVSGDFINNNRWWTWVRQSPGKGLEWIGEIYHSGSTNYNPSLKGRVTISVDKSKNHFSLKLTSVTAADTAMYYCARGGYCTVGDCHDNWFDPWGQGTLVTVSS
VL: DIQMTQSPSTLSASVGDRVTITCRASQNINSWLAWYQQKPGKAPKVLIYKASSLESGVPSRFSGSVSGTEFTLTISSLQPDDFATYYCQQYSTLSWTFGQGTKVDIK
B3: COV93-38 (antibody, V domains shown)
VH: B2 VH with R5Q, T23A, I29S, Y53H, H54Q, G66S, V68I, H78Q, M93V, T103S
VL: B2 VL with N28T, T93S
B4: COV44-54 (antibody, V domains shown)
VH: QVQLVQSGAEVKKPGASVRVSCKTSGYTFTNYYMTWVRQAPGQGLQWVGLISPSAGYTAYAQMFQGRVTMTSDTSTSTVYMQLSSLRSEDTAIYYCTRVAVAGPNDYWGQGTLVTVSS
VL: EIVLTQSPGTLSLSPGERATLSCRASQSISGSYLAWYQQKPGQAPRLVIYAASSRATGIPDRFSGSGSGTDFILTISRLEAEDFAVYFCQHYRSSPPLWTFGQGTKVEIR
B5: COV30-14 (antibody, V domains shown)
VH: QVQLVQSGAEVKKPGASVKVSCQTSGYTFTSYYMHWVRQAPGQGLEWMGLITPSGDDTYYAQRFQGRVTMTRDTSTSPTYMELSSLTSEDTAVYYCAKMSRAGGFDVWGQGTLVTVSS
VL: EVVLTQSPGTLSLSPGERATLSCRASQSITGRYLAWYQQKPGQAPRLLMYGESSRVTGIPDRFSGGGSGTDFTLTISRLEPEDFAVYYCQHFASSPPTYTFGQGTKLEIR
B6: COV49-03 (antibody, V domains shown)
VH: DVQLLESGGGLVQPGGSRRLSCAASGFTFSNYAMSWVRQAPGKGLEWVSAISGGGATTYYADSVQGRFTMSRDNSNNTLYLQMSSLRAEDTAVYYCTKGAFYDILSSIIVEGDYWGQGTLVTVSS
VL: DVVLTQSPLSLPITLGQPASISCRSSQSLVFSDGNTYLNWFQQRPGQSPRRLIYKVSNRDSGVPDRFSGSGSGTDFTLKISRVEAEDVGVYYCMQGTHWLSITFGQGTRLEIK
B7: COV93-03 (antibody, V domains shown)
VH: QLQLVQSGAEVKKPGASVKLSCKASGNTFTSHYIHWVRQAPGQGPEWMGIINPSGSGTRYAQKFQGRVTMTRDTSTSTVYMELVSLRFEDTAVYYCAGDYYLDYWGQGTLVTVSS
VL: EFVLTQSPGTLSLSPGERATLSCRASQSVTSNYLAWYQQKPGQAPRLLIFGASSRATGIPDRFSGSGSGTDFTLTISRLEPEDFAVYYCQQYGSSPPMYTFGPGTKVEIK
B8: COV72-37 (antibody, V domains shown)
VH: QVQLVQSGAEVKKPAASVKVSCKASGDTFSSHYMHWVRQAPGQGPEWMGIINPSGSGTAYGQKFQGRLTMTRDTSTSTVYMELSSLTSDDTAVYYCGGGSGGLFAYWGQGTLVTVSS
VL: EIVLTQSPGTLSLSPGERATLSCRASQIVRSNYLAWYQQKPGQAPRLLIYGASSRATGTPDRFSGGGSGTDFTLTINRLEPEDFAVYYCLQYDSSPPTYIFGQGTKLEIK
B9: COV93-17 (antibody, V domains shown)
VH: EVQLVQSGAEVKKPGESLRISCRGSGYSFTNYWISWVRQMPGKGLEWMGRIDPTDSYTNYSPSFQGHVTISTDKSISTAYLQWSSLKASDTAMYYCARHKNGMIHEYDYWGQGILVTVSS
VL: DIQLTQSPSTLSASVGDRVTITCRASQSIRSWLAWYQQKPGKAPKLLIYRASSLESGVPSRFSGSGSGTEFTLTISSLQPDDFATYYCQQYGTFGPGTKVDIR
B10: COV49-51 (antibody, V domains shown)
VH: QVQLVQSGAEAKKPGASVKVSCKASGYSFTSYHMHWVRQAPGQGLEWMGIINPNGGTTTYAPKFQGRVTMTSDTSTSTVYMELTSLRSEDTAVYYCSTVVGALWGQGTLVIVSS
VL: IVLTQSPGTLSLSPGERATLSCRASQSVRSNNYLAWYQQKPGQAPRLLIYGASTRATGIPDRFSGSGSGTDFTLTISRLEPEDFAVYYCQQYGSSPLTFGGGTRVEIK

Molecular target: T1, HCoV-229E spike protein (Sino …)
Assay: bead flow cytometry, AUC minus CD4

| Binder | binding result |
| --- | --- |
| B1 | no binding (tested: 200 µg/mL) |
| B2 | no binding (tested: 200 µg/mL) |
| B3 | no binding (tested: 200 µg/mL) |
| B4 | no binding (tested: 200 µg/mL) |
| B5 | no binding (tested: 200 µg/mL) |
| B6 | no binding (tested: 200 µg/mL) |
| B7 | no binding (tested: 200 µg/mL) |
| B8 | no binding (tested: 200 µg/mL) |
| B9 | no binding (tested: 200 µg/mL) |
| B10 | no binding (tested: 200 µg/mL) |

Molecular target: T2, HCoV-NL63 spike protein (Sino …)
Assay: bead flow cytometry, AUC minus CD4

| Binder | binding result |
| --- | --- |
| B1 | no binding (tested: 200 µg/mL) |
| B2 | no binding (tested: 200 µg/mL) |
| B3 | no binding (tested: 200 µg/mL) |
| B4 | no binding (tested: 200 µg/mL) |
| B5 | no binding (tested: 200 µg/mL) |
| B6 | no binding (tested: 200 µg/mL) |
| B7 | no binding (tested: 200 µg/mL) |
| B8 | no binding (tested: 200 µg/mL) |
| B9 | no binding (tested: 200 µg/mL) |
| B10 | no binding (tested: 200 µg/mL) |

Molecular target: SARS-CoV-2 spike receptor binding domain (RBD), recombinant (SARS-CoV-2, UniProt P0DTC2 319-541)
Assay: bead flow cytometry, AUC minus CD4

| Binder | binding result |
| --- | --- |
| B1 | no binding (tested: 200 µg/mL) |
| B2 | no binding (tested: 200 µg/mL) |
| B3 | no binding (tested: 200 µg/mL) |
| B4 | no binding (tested: 200 µg/mL) |
| B6 | no binding (tested: 200 µg/mL) |
| B7 | no binding (tested: 200 µg/mL) |
| B9 | no binding (tested: 200 µg/mL) |
| B10 | no binding (tested: 200 µg/mL) |

Molecular target: SARS-CoV-2 spike N-terminal domain (NTD), recombinant (SARS-CoV-2, UniProt P0DTC2 14-305)
Assay: bead flow cytometry, AUC minus CD4

| Binder | binding result |
| --- | --- |
| B1 | no binding (tested: 200 µg/mL) |
| B2 | no binding (tested: 200 µg/mL) |
| B3 | no binding (tested: 200 µg/mL) |
| B4 | no binding (tested: 200 µg/mL) |
| B5 | no binding (tested: 200 µg/mL) |
| B6 | no binding (tested: 200 µg/mL) |
| B7 | no binding (tested: 200 µg/mL) |
| B8 | no binding (tested: 200 µg/mL) |
| B9 | no binding (tested: 200 µg/mL) |
| B10 | no binding (tested: 200 µg/mL) |
